B1: ELF3 (parent)
chain: LSKEYWDCLEGKKSKHAPRGTHLW
B2: PLK2 (parent)
chain: YAELGQCSVFPATDAPEQFISQVT

Variants of: B1
Experiment: protein stability index of a GFP-peptide fusion (GPS, HEK-293T) (PSI 1-6); higher = more stable
Conditions: c terminus: a fixed tail appended
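Also: lentivirally expressed fusions sorted by FACS into six bins by GFP to DsRed ratio, PSI derived from sequencing read proportions per bin multiplied by bin number.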

**Q.** With LSKEYWDCLEGKKSKHAPRPTHLW as the variant, how does the protein stability index read?
**A.** 2.72

**Q.** Which protein stability index does the source give for LSKEYWDCLEGKKSKHAPRQTHLW here?
**A.** 3.06

**Q.** With LSKEYWDCLEGKKSKHAPRRTHLW as the variant, how does the protein stability index read?
**A.** 2.64

**Q.** Which protein stability index does the source give for LSKEYWDCLEGKKSKHAPRSTHLW here?
**A.** 3.15

**Q.** For LSKEYWDCLEGKKSKHAPRTTHLW, which protein stability index is on record?
**A.** 2.64

**Q.** Which protein stability index does the source give for LSKEYWDCLEGKKSKHAPRVTHLW here?
**A.** 2.11

**Q.** With LSKEYWDCLEGKKSKHAPRWTHLW as the variant, how does the protein stability index read?
**A.** 1.94

**Q.** Which protein stability index does the source give for LSKEYWDCLEGKKSKHAPRYTHLW here?
**A.** 2.78

**Q.** For LSKEYWDCLEGKKSKHAPRGAHLW, which protein stability index is on record?
**A.** 3.4

**Q.** Which protein stability index does the source give for LSKEYWDCLEGKKSKHAPRGCHLW here?
**A.** 2.22

**Q.** For LSKEYWDCLEGKKSKHAPRGDHLW, which protein stability index is on record?
**A.** 3.45

**Q.** Which protein stability index does the source give for LSKEYWDCLEGKKSKHAPRGEHLW here?
**A.** 3.37

**Q.** Which protein stability index does the source give for LSKEYWDCLEGKKSKHAPRGFHLW here?
**A.** 2.05

**Q.** With LSKEYWDCLEGKKSKHAPRGGHLW as the variant, how does the protein stability index read?
**A.** 2.54

**Q.** With LSKEYWDCLEGKKSKHAPRGHHLW as the variant, how does the protein stability index read?
**A.** 2.66

**Q.** With LSKEYWDCLEGKKSKHAPRGIHLW as the variant, how does the protein stability index read?
**A.** 2.19

**Q.** With LSKEYWDCLEGKKSKHAPRGKHLW as the variant, how does the protein stability index read?
**A.** 3.08

**Q.** Which protein stability index does the source give for LSKEYWDCLEGKKSKHAPRGLHLW here?
**A.** 2.02

**Q.** Which protein stability index does the source give for LSKEYWDCLEGKKSKHAPRGMHLW here?
**A.** 2.32

**Q.** Which protein stability index does the source give for LSKEYWDCLEGKKSKHAPRGNHLW here?
**A.** 3.1

**Q.** With LSKEYWDCLEGKKSKHAPRGPHLW as the variant, how does the protein stability index read?
**A.** 2.57

**Q.** With LSKEYWDCLEGKKSKHAPRGQHLW as the variant, how does the protein stability index read?
**A.** 2.78

**Q.** Which protein stability index does the source give for LSKEYWDCLEGKKSKHAPRGRHLW here?
**A.** 2.78

**Q.** With LSKEYWDCLEGKKSKHAPRGSHLW as the variant, how does the protein stability index read?
**A.** 2.24

**Q.** With LSKEYWDCLEGKKSKHAPRGVHLW as the variant, how does the protein stability index read?
**A.** 1.8

**Q.** Which protein stability index does the source give for LSKEYWDCLEGKKSKHAPRGWHLW here?
**A.** 2.04

**Q.** Which protein stability index does the source give for LSKEYWDCLEGKKSKHAPRGYHLW here?
**A.** 2.37

**Q.** For LSKEYWDCLEGKKSKHAPRGTALW, which protein stability index is on record?
**A.** 2.56

**Q.** For LSKEYWDCLEGKKSKHAPRGTCLW, which protein stability index is on record?
**A.** 2.45

**Q.** With LSKEYWDCLEGKKSKHAPRGTDLW as the variant, how does the protein stability index read?
**A.** 3.31

**Q.** With LSKEYWDCLEGKKSKHAPRGTELW as the variant, how does the protein stability index read?
**A.** 3.29

**Q.** With LSKEYWDCLEGKKSKHAPRGTFLW as the variant, how does the protein stability index read?
**A.** 1.92

**Q.** With LSKEYWDCLEGKKSKHAPRGTGLW as the variant, how does the protein stability index read?
**A.** 2.68

**Q.** With LSKEYWDCLEGKKSKHAPRGTILW as the variant, how does the protein stability index read?
**A.** 2.42

**Q.** For LSKEYWDCLEGKKSKHAPRGTKLW, which protein stability index is on record?
**A.** 2.99

**Q.** With LSKEYWDCLEGKKSKHAPRGTLLW as the variant, how does the protein stability index read?
**A.** 2.12

**Q.** With LSKEYWDCLEGKKSKHAPRGTMLW as the variant, how does the protein stability index read?
**A.** 2.37

**Q.** With LSKEYWDCLEGKKSKHAPRGTNLW as the variant, how does the protein stability index read?
**A.** 3.23

**Q.** With LSKEYWDCLEGKKSKHAPRGTPLW as the variant, how does the protein stability index read?
**A.** 3.03

**Q.** For LSKEYWDCLEGKKSKHAPRGTQLW, which protein stability index is on record?
**A.** 3.05

**Q.** Which protein stability index does the source give for LSKEYWDCLEGKKSKHAPRGTRLW here?
**A.** 2.85

**Q.** Which protein stability index does the source give for LSKEYWDCLEGKKSKHAPRGTSLW here?
**A.** 3.1

**Q.** For LSKEYWDCLEGKKSKHAPRGTTLW, which protein stability index is on record?
**A.** 2.84

**Q.** Which protein stability index does the source give for LSKEYWDCLEGKKSKHAPRGTVLW here?
**A.** 2.43

**Q.** With LSKEYWDCLEGKKSKHAPRGTWLW as the variant, how does the protein stability index read?
**A.** 1.95

**Q.** With LSKEYWDCLEGKKSKHAPRGTYLW as the variant, how does the protein stability index read?
**A.** 2.51

**Q.** Which protein stability index does the source give for LSKEYWDCLEGKKSKHAPRGTHAW here?
**A.** 3.24

**Q.** With LSKEYWDCLEGKKSKHAPRGTHCW as the variant, how does the protein stability index read?
**A.** 3.11

**Q.** With LSKEYWDCLEGKKSKHAPRGTHDW as the variant, how does the protein stability index read?
**A.** 4.24

**Q.** Which protein stability index does the source give for LSKEYWDCLEGKKSKHAPRGTHEW here?
**A.** 4.03

**Q.** For LSKEYWDCLEGKKSKHAPRGTHFW, which protein stability index is on record?
**A.** 2.93

**Q.** With LSKEYWDCLEGKKSKHAPRGTHGW as the variant, how does the protein stability index read?
**A.** 3.42

**Q.** With LSKEYWDCLEGKKSKHAPRGTHHW as the variant, how does the protein stability index read?
**A.** 3.42

**Q.** Which protein stability index does the source give for LSKEYWDCLEGKKSKHAPRGTHIW here?
**A.** 2.66

**Q.** With LSKEYWDCLEGKKSKHAPRGTHKW as the variant, how does the protein stability index read?
**A.** 3.29

**Q.** For LSKEYWDCLEGKKSKHAPRGTHMW, which protein stability index is on record?
**A.** 3.27

**Q.** For LSKEYWDCLEGKKSKHAPRGTHNW, which protein stability index is on record?
**A.** 3.29

**Q.** Which protein stability index does the source give for LSKEYWDCLEGKKSKHAPRGTHPW here?
**A.** 3.13

**Q.** For LSKEYWDCLEGKKSKHAPRGTHQW, which protein stability index is on record?
**A.** 3.59

**Q.** For LSKEYWDCLEGKKSKHAPRGTHRW, which protein stability index is on record?
**A.** 3.25

**Q.** For LSKEYWDCLEGKKSKHAPRGTHSW, which protein stability index is on record?
**A.** 3.41

**Q.** With LSKEYWDCLEGKKSKHAPRGTHTW as the variant, how does the protein stability index read?
**A.** 3.29

**Q.** Which protein stability index does the source give for LSKEYWDCLEGKKSKHAPRGTHVW here?
**A.** 2.93

**Q.** With LSKEYWDCLEGKKSKHAPRGTHWW as the variant, how does the protein stability index read?
**A.** 2.71

**Q.** For LSKEYWDCLEGKKSKHAPRGTHYW, which protein stability index is on record?
**A.** 2.85

**Q.** With LSKEYWDCLEGKKSKHAPRGTHLA as the variant, how does the protein stability index read?
**A.** 3.96

**Q.** Which protein stability index does the source give for LSKEYWDCLEGKKSKHAPRGTHLC here?
**A.** 3.8

**Q.** With LSKEYWDCLEGKKSKHAPRGTHLD as the variant, how does the protein stability index read?
**A.** 4.02

**Q.** For LSKEYWDCLEGKKSKHAPRGTHLE, which protein stability index is on record?
**A.** 4.33

**Q.** For LSKEYWDCLEGKKSKHAPRGTHLF, which protein stability index is on record?
**A.** 3.6

**Q.** With LSKEYWDCLEGKKSKHAPRGTHLG as the variant, how does the protein stability index read?
**A.** 4.07

**Q.** With LSKEYWDCLEGKKSKHAPRGTHLH as the variant, how does the protein stability index read?
**A.** 3.98

**Q.** With LSKEYWDCLEGKKSKHAPRGTHLI as the variant, how does the protein stability index read?
**A.** 2.94

**Q.** Which protein stability index does the source give for LSKEYWDCLEGKKSKHAPRGTHLK here?
**A.** 4.11

**Q.** With LSKEYWDCLEGKKSKHAPRGTHLL as the variant, how does the protein stability index read?
**A.** 3.3

**Q.** Which protein stability index does the source give for LSKEYWDCLEGKKSKHAPRGTHLM here?
**A.** 3.83

**Q.** With LSKEYWDCLEGKKSKHAPRGTHLN as the variant, how does the protein stability index read?
**A.** 3.64

**Q.** For LSKEYWDCLEGKKSKHAPRGTHLP, which protein stability index is on record?
**A.** 4.15

**Q.** Which protein stability index does the source give for LSKEYWDCLEGKKSKHAPRGTHLQ here?
**A.** 3.8

**Q.** With LSKEYWDCLEGKKSKHAPRGTHLR as the variant, how does the protein stability index read?
**A.** 3.54

**Q.** For LSKEYWDCLEGKKSKHAPRGTHLS, which protein stability index is on record?
**A.** 4.08

**Q.** For LSKEYWDCLEGKKSKHAPRGTHLT, which protein stability index is on record?
**A.** 4.05

**Q.** For LSKEYWDCLEGKKSKHAPRGTHLV, which protein stability index is on record?
**A.** 2.96

**Q.** With LSKEYWDCLEGKKSKHAPRGTHLY as the variant, how does the protein stability index read?
**A.** 2.9

Variants of: B2
Experiment: as above
Conditions: c terminus: a fixed tail appended

**Q.** For YAELGQCSVFPATDAPEQFISQVD, which protein stability index is on record?
**A.** 2.64

**Q.** Which protein stability index does the source give for YAELGQCSVFPATDAPEQFESQVT here?
**A.** 2.69

**Q.** For YAELGLCSVFPATDAPEQFISQVT, which protein stability index is on record?
**A.** 2.03

**Q.** Which protein stability index does the source give for YAELGQCSVFPATDAPEQFISQVV here?
**A.** 1.9

**Q.** For YAELGQCSVFPATDAPEFFISQVT, which protein stability index is on record?
**A.** 2.15

**Q.** Which protein stability index does the source give for YAELGQCSVFPATTAPEQFISQVT here?
**A.** 1.94

**Q.** Which protein stability index does the source give for EAELGQCSVFPATDAPEQFISQVT here?
**A.** 4.52

**Q.** Which protein stability index does the source give for YAELGQCSVFPATDYPEQFISQVT here?
**A.** 2.13

**Q.** With YAELGQCSVFPATDAPEQFIEQVT as the variant, how does the protein stability index read?
**A.** 2.75

**Q.** For YAELGQCSRFPATDAPEQFISQVT, which protein stability index is on record?
**A.** 2.17
